Results as given in patent US8901081B2, “Uses of GRS proteins or fragments thereof” (SNU R&DB Foundation, priority 2008, dated 2014).

Experiments:
Type in all cases: cell-based
[1] = tested on: MAPKs (ERK, p38 MAPK, Jun N-terminal kinase) in HeLa cells; assay: Effect on MAPKs (immunoblotting of total and phosphorylated MAPKs)
Protocol: HeLa cells were cultured on a 6-well plate for 12 hours. After washing 2 times, the cells were allowed to stand in serum-starved DMEM for 3 hours. Then, the cells were cultured with GRS protein (150 nM) or TNF-α (15 ng/mL) for 10, 30, 60, 90 or 120 minutes, and then washed 2 times with cold phosphate buffer. The protein was extracted with 25 mM Tris-HCl (pH 7.4) lysis buffer containing 150 mM NaCl, 1 mM EDTA, 1 mM sodium orthovanadate, 20 mM sodium fluoride, 12 mM β-glycerophosphate, 10% glycerol, 1% Triton X-100 and protease inhibitor, separated by loading on 10% SDS-PAGE, and then transferred to polyvinylidene difluoride (PVDF) membrane (Millipore). Then, immunoblotting was performed using antibodies specific total MAPKs and phosphorylated MAPKs.

[2] = tested on: p38 kinase in HCT+/− cancer cells; assay: Apoptosis mechanism: p38/ERK Western blotting; details: 100 nM GRS protein, 0-120 minutes; FIG. 8
Protocol: HCT+/− cancer cells were placed on a […]. 18 hours later, after washing with serum-starved medium, the cells were treated with 100 nM GRS protein or 2 μg/mL lipopolysaccharide (LPS) in serum-starved medium (1 mL). After culturing for 0, 10, 30, 60, 90 or 120 minutes, the cells were collected using a lifter. The cells were centrifuged at 3,000 rpm for 5 minutes and, after decanting the supernatant, adding lysis buffer (200 μL) containing 0.5% Triton X-100, 2 mM EDTA, 10% glycerol, 150 mM NaCl, 25 mM Tris-HCl (pH 7.4) and protease inhibitor, and mixing at 4° C. for 30 minutes, the mixture was centrifuged at a rate of 12,000 rpm at 4° C. for 15 minutes and the protein was quantitated by the Bradford method. The collected protein was separated by loading on 10% SDS-PAGE and Western blotting was carried out using anti-p-p38, anti-p38, anti-p-ERK, anti-ERK and anti-tubulin antibodies.

[3] = tested on: HeLa and HCT+/− cancer cells, normal 293 cells and macrophage RAW cells; assay: Attachment of biotinylated GRS protein to cells (Western blotting with streptavidin-HRP); details: 0, 1, 2, 5 or 10 μg biotinylated GRS protein; FIG. 4
Protocol: HeLa and HCT+/− cancer cells, normal 293 cells and macrophage RAW cells were placed on a 35-mm dish, cultured for 18 hours, and then washed with serum-starved medium (1 mL). Then, after adding 0, 1, 2, 5 or 10 μg of biotinylated GRS protein, proteins were collected from the whole cell lysate in the same manner as in Example 1. Then, Western blotting was performed using streptavidin-HRP and anti-tubulin antibodies.

[4] = tested on: HeLa, A549, HCT+/− and H460 cancer cells; assay: Anticancer activity by MTT assay, cancer cells; details: His-GRS protein 50, 100 or 150 nM, 24 hours, FIG. 6
Protocol: (§1) HeLa, A549, HCT+/− and H460 cancer cells, H293 kidney cells, SH-SY5Y neural cells, human skin fibroblast HSF cells, and macrophage RAW cells were placed on a 96-well plate, cultured for 18 hours, washed with serum-starved medium, treated with His-GRS protein (0, 50, 100 or 150 nM), heated His-GRS protein (150 nM) or 2 μg/mL Adriamycin in serum-starved medium (100 μL), cultured for 24 hours, treated with 5 mg/mL MTT (10 μL per each well), and then cultured for 2 hours. After decanting the supernatant using a syringe and treating with DMSO (100 μL per each well), the cells were cultured for 10 minutes and absorbance was measured at 570 nm using an ELISA reader.

[5] = tested on: H293 kidney cells, SH-SY5Y neural cells, macrophage RAW cells; assay: Anticancer activity by MTT assay, kidney, neural and immune cells; details: His-GRS protein 50, 100 or 150 nM, 24 hours; FIG. 6
Protocol: as §1

[6] = tested on: Bax, Bcl-2 and cytochrome C in HeLa cells; assay: Intracellular level of Bax, Bcl-2 and cytochrome C (Western blotting); details: 150 nM GRS
Protocol: Also, in order to investigate whether the GRS-induced apoptosis is related with mitochondria, the intracellular level of Bax, Bcl-2 and cytochrome C was examined. First, HeLa cells were cultured with 150 nM GRS for a predetermined time. The cells were then collected, resuspended in 20 mM HEPES (pH 7.5) storage buffer containing 10 mM KCl, 1.5 mM MgCl2, 0.5 mM EDTA, 1 mM DTT and protease inhibitor (Calbiochem), allowed to stand on ice for 5 minutes, and then homogenized for 6 cycles. Then, after centrifuging at 10,000 g for 10 minutes, protein was separated from the supernatant using 12% SDS-PAGE and transferred to PVDF membrane. Then, Western blotting was performed using cytochrome C or anti-tubulin antibody. […] To be concluded, GRS has pro-apoptotic activity in the HeLa cells.

[7] = tested on: HeLa, A549, HCT+/− and HCT+/+ cancer cells; assay: Anticancer activity by FACS (sub-G1 dead cells), cancer cells; details: GRS protein 100 nM, FIG. 5
Protocol: (§2) HeLa, A549, HCT+/− and HCT+/+ cancer cells, BV2 and SH-SY5Y neural cells, human skin fibroblast HSF cells, and macrophage RAW cells were placed on a 35-mm dish, and cultured for 18 hours. The cell culture was washed with serum-starved medium (1 mL), treated with GRS protein (0 or 100 nM), heated GRS protein (100 nM) or 1 μg/mL Adriamycin, and further treated with trypsin EDTA. The cells were isolated and centrifuged at a rate of 500 g for 10 minutes. After decanting the supernatant, the cells were resuspended in cold PBS (0.3 mL). After adding cold 100% EtOH (0.7 mL) and mixing for 5 seconds, the mixture was incubated at −20° C. overnight. The cell culture was centrifuged at a rate of 500 g at 4° C. for 10 minutes. After decanting the supernatant, adding cold PBS (1 mL) and mixing for 5 seconds, the mixture was centrifuged again at a rate of 500 g at 4° C. for 10 minutes. After decanting the supernatant, the cells were resuspended in P.I solution (500 μL) and incubated at room temperature for 20 minutes. Then, the number of dead cells was counted by FACS by measuring the quantity of DNA fragments resulting from apoptosis. The result is shown in FIG. 5 (The cells in sub-G1 phases were considered as dead cells).

[8] = tested on: BV2 and SH-SY5Y neural cells, macrophage RAW cells; assay: Anticancer activity by FACS (sub-G1 dead cells), neural and immune cells; details: GRS protein 100 nM; FIG. 5
Protocol: as §2

[9] = tested on: caspase 3 in HCT+/− cancer cells; assay: Caspase 3 assay (Western blotting); details: His-GRS protein 50, 100 or 150 nM, 24 hours, FIG. 7
Protocol: HCT+/− cancer cells or macrophage RAW cells were placed on a 35-mm dish. 18 hours later, after washing with serum-starved medium, the cells were treated with His-GRS protein (0, 50 nM, 100 nM or 150 nM) or heated His-GRS protein (150 nM) in serum-starved medium (1 mL). After culturing for 24 hours, the cells were collected using a lifter. The cells were centrifuged at 3000 rpm for 5 minutes and, after decanting the supernatant, adding lysis buffer (200 μL) containing 0.5% Triton X-100, 2 mM EDTA, 10% glycerol, 150 mM NaCl, 25 mM Tris-HCl (pH 7.4) and protease inhibitor, and mixing at 4° C. for 30 minutes, the mixture was centrifuged at a rate of 12,000 rpm at 4° C. for 15 minutes and the protein was quantitated by the Bradford method. The collected protein was separated by loading on 15% SDS-PAGE and Western blotting was carried out using anti-caspase 3 and anti-tubulin antibodies.

[10] = tested on: HeLa cells and RAW 264.7 cells; assay: Cell viability with GST-GRS fragments (MTT assay); details: GST-GRS fragments added to HeLa and RAW 264.7 cells; FIG. 15
Protocol: In order to investigate the domain of the GRS protein related to cytokine activity, four GRS fragments of SEQ ID NOs. 3 to 6 (FIGS. 13 and 14) were prepared and they were expressed with the GST fusion protein. […] Then, cell viability was examined.

[11] = GRS protein 150 nM, 10-120 minutes, FIG. 9

TNF-α [reference compound]
phosphorylation of all the MAPKs ([1]; TNF-α 15 ng/mL, FIG. 10): increased in 30 minutes

B1: GRS protein: glycyl-tRNA synthetase (GRS) protein, amino acid sequence of SEQ ID NO. 1 (protein, listed as Homo sapiens)
chain: MDGAGAEEVLAPLRLAVRQQGDLVRKLKEDKAPQVDVDKAVAELKARKRVLEAKELALQPKDDIVDRAKMEDTLKRRFFYDQAFAIYGGVSGLYDFGPVGCALKNNIIQTWRQHFIQEEQILEIDCTMLTPEPVLKTSGHVDKFADFMVKDVKNGECFRADHLLKAHLQKLMSDKKCSVEKKSEMESVLAQLDNYGQQELADLFVNYNVKSPITGNDLSPPVSFNLMFKTFIGPGGNMPGYLRPETAQGIFLNFKRLLEFNQGKLPFAAAQIGNSFRNEISPRSGLIRVREFTMAEIEHFVDPSEKDHPKFQNVADLHLYLYSAKAQVSGQSARKMRLGDAVEQGVINNTVLGYFIGRIYLYLTKVGISPDKLRFRQHMENEMAHYACDCWDAESKTSYGWIEIVGCADRSCYDLSCHARATKVPLVAEKPLKEPKTVNVVQFEPSKGAIGKAYKKDAKLVMEYLAICDECYITEIEMLLNEKGEFTIETEGKTFQLTKDMINVKRFQKTLYVEEVVPNVIEPSFGLGRIMYTVFEHTFHVREGDEQRTFFSFPAVVAPFKCSVLPLSQNQEFMPFVKELSEALTRHGVSHKVDDSSGSIGRRYARTDEIGVAFGVTIDFDTVNKTPHTATLRDRDSMRQIRAEISELPSIVQDLANGNITWADVEARYPLFEGQETGKKETIEE
modifications: His tag; PEPTIDE (1)..(685) full length of GRS
level of phosphorylated ERK [1, 11]: increased with time
level of phosphorylated p38 MAPK [1, 11]: increased with time
effect on p38 kinase-related mechanism [2]: had an effect on the p38 kinase-related mechanism
attachment of GRS protein to the surface of cells [3]: attached to the surface of other cells
killing of cancer cells (cell viability by MTT assay) [4]: specifically killed
effect on kidney, neural and immune cells (cell viability by MTT assay) [5]: little effect
intracellular level of Bax ([6]; FIG. 11): did not affect
intracellular level of Bcl-2 ([6]; FIG. 11): reduction
secretion of cytochrome C ([6]; FIG. 12): increased
killing of cancer cells (dead cells in sub-G1 counted by FACS) [7]: specifically killed
effect on neural and immune cells (dead cells in sub-G1 counted by FACS) [8]: little effect
caspase 3 in active form [9]: caspase 3 in active form was observed

B2: F4: 511st through 685th amino acids of the full-length GRS, including the C-terminal anticodon-binding domain (protein, listed as Homo sapiens)
chain: LYVEEVVPNVIEPSFGLGRIMYTVFEHTFHVREGDEQRTFFSFPAVVAPFKCSVLPLSQNQEFMPFVKELSEALTRHGVSHKVDDSSGSIGRRYARTDEIGVAFGVTIDFDTVNKTPHTATLRDRDSMRQIRAEISELPSIVQDLANGNITWADVEARYPLFEGQETGKKETIEE
modifications: DOMAIN (1)..(175) Fragment 4 (511-685aa)
pro-apoptotic cytokine activity (cell viability) [10]: exhibited pro-apoptotic cytokine activity
